Test: label from the status in PepcDB records
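Further: failed if final PepcDB status was selected cloned or expressed and not failed if soluble or beyond.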

MFISVLDLFKIGIGPSSSHTMGPMTAANVFRDHVDQLVSQTPDDLNYRVYCVLKGSLAFTGRGHATDRAVALGLHGHSPVSLAGEDVNALTAKLWATDTLQLTSGREIGFNPEDDIVFDKSDPLPQHPNGMIFYLLDEEGKKILSETFFSIGGGFICTLAEINQ
protein production: not failed

MLIRKITRKNPSPDVLEEAISVMEGGGIVIYPTDTIYGLGVNALDEDAVRRLFRVKGRSPHKPVSICVSCVDEIPRFSRPSGDAMELMERILPGPYTVVLERNELIPDVITGGSSRVGIRVPDDEICRRIAARFPVTATSANISGKPPSPRLEEIVRDLDAVDLVLDAGDCLDMEPSTVIDLTVNPPRVLRRGKGPLDPVLLRGAGDV
protein production: not failed

MGLKPSEVIELWPVKIFFIILSVTLFYNFALANGALEKLASHLLYKCRKFPQFLPLAIFFAATIIAGLGAGFYTVLAFMAPITLLLCKKTNMNMIIGGMAANYGALAGANFMTSQSGIIFRSLMENTGISSQTAFSYSSGIFVLTLIIPIAVLGIYTLWNRKSNSIVIEDQKPEPFDKKQKQSIFLIILMMSIVLVFPILHLVFPDVKTISFLNSKIDIAFLAITFSLISLLMKLADEKKVIALVPWRTLIMICGVGMLIALGVKLGIITTLSEWLANNVPVWVIPVLLCLISAIMSVFSSTLGVVAPTLFPIVPALALTSGLNPLVLFICIVVGAQSTAISPFSSGGSLIMASAPADIDKTKFFNQLLFKAIPVGVIAALIAIFALKFVI
protein production: failed

MSLHDFTLADVYRRNAALFPDRTAFMVDGVRLTHRDYLARAERLASGLLRDGVHTGDRVAILSQNCSEMIELIGAVALIGAILLPVNYRLNADEIAFVLGDGAPSVVVAGTDYRDIVAGVLPSLGGVKKAYAIGDGSGPFAPFKDLASDTPFSAPEFGAADGFVIIHTAAVGGRPRGALISQGNLLIAQSSLVDAWRLTEADVNLGMLPLFHVTGLGLMLTLQQAGGASVIAAKFDPAQAARDIEAHKVTVMAEFAPMLGNILDQAAPAQLASLRAVTGLDTPETIERFEATCPNATFWATFGQSETSGLSTFAPYRDRPKSAGRPLFWRTVAVVDAEDRPLPPGEVGEIVLRGPTVFKGYWNNAAATQHAFRNGWHHTGDMGRFDADGYLFYAGRAPEKELIKTGGENVYPAEVEGALKQHPAIADAVVIGVPDPQWSEAIKAVCVCKPGESIAADALAEFVASLIARYKKPKHVVFVEALPKDAKGAIDRAAVKTAHGQEGHHHHHH
protein production: not failed

MDWTTLFFSFRGRINRAKYWLVGLIYVAAWMVFTVLAITWLGGVDPDQLFRFAGGAILIWLIAIALGLAGTWSGLATGVKRLHDRDKSGWWILLFWFGPSLLGGSNQTMEDSPVSLVLALIGLGIAIWGFVELGCLRGTPGPNQYGPDPLEPQGTLT
protein production: failed

MAAPMEVAVCTDSAAPMWSCIVWELHSGANLLTYRGGQAGPRGLALLNGEYLLAAQLGKNYISAWELQRKDQLQQKIMCPGPVTCLTASPNGLYVLAGVAESIHLWEVSTGNLLVILSRHYQDVSCLQFTGDSSHFISGGKDCLVLVWSLCSVLQADPSRIPAPRHVWSHHTLPITDLHCGFGGPLARVATSSLDQTVKLWEVSSGELLLSVLFDVSIMAVTMDLAEHHMFCGGSEGSIFQVDLFTWPGQRERSFHPEQDAGKVFKGHRNQVTCLSVSTDGSVLLSGSHDETVRLWDVQSKQCIRTVALKGPVTNAAILLAPVSMLSSDFRPSLPLPHFNKHLLGAEHGDEPRHGGLTLRLGLHQQGSEPSYLDRTEQLQAVLCSTMEKSVLGGQDQLRVRVTELEDEVRNLRKINRDLFDFSTRFITRPAK
protein production: failed

MVITNFLILLLGLVFLVKGSDYFVKSASSIAKKLGISEFIIGLTLVAVGTSIPELASSMAASIQQASGIVIGNVVGSNIANIGLIVGIAAFLSPMKTEVEMLRRDGYIMLFAALLFFAFALNGELSKIEAGLFLLLYIAYTFFLFEETDKHEGKLYFKEFIKYFVKFQYINSARQKINGINNGVSRTNGDSGNKNCQPKNSFSKDILALILSCAAIIIGAKYFVSESIFFAELLGIPDTIIGTTLVAIGTSLPELAVTVSAARQGYGNIALGNIIGSNITNILMILGVSGLLFPIAVAEISLVFTAPVMIFISVVLLIFISTGWEIKRWEGAALMSLYAAFLFVLFRIS
protein production: failed

MKQRRKGQENSDTEEMISRIYPYITRVFDIYEIQKSGEILYFFGTPKTDAENVMGELWAPLEQRGLGGTLKYELGEHVLIVTPVKKAKEKHWVNLALFIATVFTTMICGAWLFGVDLWSEPLQIFQGLPFTLAILAVLGSHEMAHYAMARHHGMKTSLPYFIPFPTFIGTMGAVIRYRGPIPDRKALFDVGIAGPLVGLLVSIVVTIIGLNLDVPAVKPLPDSLMFELGLPPLFVMLQKLVGVTGSNLHPVAFAGWVGMFVTLLNLLPAGQLDGGHVLRAMLGKKADWVSSMMPRILLMIGIYVVYGLKGDGFIWIFWALFLWAFAAAGHPSPLHDKMKLDRKRILIGILTFILGLLCFTLIPFKPIT
protein production: failed

MYPKKQACCPAMVMPYTLHAERTRVEVIPERGGLISRWQWQGHELLYLDRERFANPQFSVRGGIPLLFPICGNLPEDAFHDNGQTYHLKQHGFARDLPWQVLDQRQHVLKLGLQDTPATRQVYPFAFHLTLTYTLAADALAIALEVANPGDIPLPFSFGLHPYFAVADKHQLQFDLPIHAMVDQKTQQPLTFSGTFDWSAAELDWACRPLTGQVARVFDLQQQYCLTLRYDTAFTTLVFWTVQGKPYYCLEPWTAPRNALNTGVDLLHVPPQKHLTLGVEIAVAPL
protein production: failed

MAADVVFPGLCVFLSAGLLLALVHGRRVGRRADRQCRHLAAITDTMSEGFYVVDGDDRIVMANAAAGRILGYTQDDLIGACAHALFHARSADDPDPVPLEECRLNRAVRERRAAFLDVGHFRHRSGKIIAVEVSCNPVADTLAEEGRRGGLLGWLLDGDDAEGAPGALLSMVTFVDITARRESEAAVIKLSHAVEQSSASIVITDADGRIEYANPAFTKISGYTAQEAIGRRPSILKSGLVPAETYRALWQTITNGGEWRGEFHNRRKDGTLYWEMASISPIRDARGKITNFVAVKDDVTERKAIESELYHRANYDALTGLPNRQLLLDRVSTALDLARRHDRRVAVMFMDIDRFKQINDSMGHAAGDVLLKQAASRLAAVLRPQDTLGRLGGDEFLVVAPGLRWESEATALASRLLEVARRPFTIDGREVYVSVSIGVSLGPVDGTTAQALMRNADAAMYLAKGGGRDAAHFFTPDIEAAARRRMLIENGLRTAVSDGSLYLALQPIIACADHTMIKAEALLRWTHPQLGGVPPSEFIPIAEESGLIRAIGAWVIEEAARLLVSLDPPRDGAFRLGINIASSQFTGGLHHHVAGMLARYDLDPRMLEIEITERMLLDPSPAILEQVDALRAMGVSIAIDDFGTGYSALSYLSVFHVDTLKIDRAFVSVMTDEARSQALIGAIVALGHELGCAVVAEGVETADQARLLGELAVDALQGYFLGRPTTAEAISDRLNPGTGRPYDKAALGTEFAEGGDLGLSVGAL
protein production: failed

MSAGLVQAAYIVAALFFIMSLAGLSKQESARNGNYYGIAGMAIALIATIFSPDAQGFGWIIIAMAIGGAIGIFYAKKVEMTEMPELVAILHSFVGLAAVLVGYNSYLDAPEAATHAEHVIHLVEVFLGVFIGAVTFTGSIVAFGKLRGVISSSPLNLPHKHKMNLAAIVVSTLLMIYFVKADGSMFALIVMTLIAFAFGYHLVASIGGADMPVVVSMLNSYSGWAAAAAGFMLANDLLIVTGALVGSSGAILSYIMCKAMNRSFISVIAGGFGQEIIISSDEEQGEHRETTAEEVAEMLKNSKSVIITPGYGMAVAQAQYPVHEITDALRSQGIEVRFGIHPVAGRLPGHMNVLLAEAKVPYDIVLEMDEINDDFSETDTVLVIGANDTVNPAALEDPNSPIAGMPVLEVWNAKNVIVFKRSMNTGYAGVQNPLFFKENTSMLFGDAKESVEAIFKAL
protein production: not failed

MNRLLELSNEIFRIKTDDYTFPLFSSLHFKIILCVVITIFIAIIFKEKIKKWKYRRTFEVTTALILLSTQIFLAIWYSRFPNFYLKESLPLYPCRIAIIMAAIGLIWKKNDFAKSIAYFWGTIGAIGALMIPITNSYIFPHITYYTFFIGHYFLLIASLYLILIEEFKVKSKNVKQALIFSFIFAICAFIANYLFDANYAFLNPPNGYEILNIINVESNIITTSIFAYFIFVLGIFIMYLPFNMSDYKKDSLFECSLIKY
protein production: failed

MGKEYVVIGLGRFGGSIVRELNALDMDVMAIDHDENRVNEYSDIATHAVVADTTDEAVMKSLGIRNFDHVIVAIGENIQSSTLTTLILKELGVKKVTAKAQNDYHAKILNKIGADTVVHPERDMGRRIAHNVASASVLDYLELADEHSIVELKATEKMAGQSIIDLDIRAQYGINIIAIKRGKEFIISPNPNINLEIGDILIMIGHDNDLNRFEKNIATR
protein production: failed

MLDGQSCPLCPSRSSLPAGTSFHQSPMDIVTRTFEAPRTYRPSASVLGRAVRAWTNDRLRGEALYLVAMTGLTILLLMAHYLGWALLTSALAASQGWEPLFWQTQVGSVLVLAGLGLVGFRPAVRVTCRPDAVTLRQGDQTRTLSPPDIQDVRLISAQRYHRHYRRYAATQVFASAVSEQVLCVRTGDGPVIVALPGPEARAALLEHLEALTASASEAAARP
protein production: failed

MVVYGADVICASCVNAPTSKDIYDWLQPLLKRKYPNISFKYTYIDITKDNDNLTDHDLQFIERIEQDELFYPLITMNDEYVADGYIQTKQITRFIDQKLVNE
protein production: not failed

MASSYTLMLFLCLSIFLIASTEMMAVEGRICERRSKTWTGFCGNTRGCDSQCKRWERASHGACHAQGFPVSGIPSALPTVTHAKQREKMSAMGAYGITYFVGSIIGLLFVQGFEPEKGTLFKEQKGGVSKIDPKP
protein production: failed

MYEGEIAIGPVHSTMLEPHRLRLFIEDEIVKDAELTIGVNHRGVERLMEGLPVEKACILCEKICGICSHIHLWSAARVAEIGCNIEVPERANHIRIIVEELERLHSHTLLFGHAFEILGHETMSMRCFMLREPIMQVFFEISGSRVHYSCPIIGGIRPRCNISETQISHIHDKISQYEEGLTKFIERMLNDPMIISRVKDVGVMDRKTAAKFHAVGPTARGSNVKSDMRKWGWVPEYDPYDFDEILFDSGDVFARLAVRFYECLESVKIIRQALDALKDTSDKRIYNPNYELNEFKPINCYTEAQRGEQYYSYGLDDEGLVRQAKIRTPTATNLGAMEDIVKGYHVSDAELIIASCDPCFTCTDRLMVLKEPFKK
protein production: failed

MSIGFYANDNFMGKSHIMDKSGKPHIGISKYPVIITQAKQQKLRKAINEARESNDILMVDFPRQMLITEHDDELVKSLGESLEEDLEYLGAIFYGKSKYVDSITGKFSLWRSNNVKVNLEHHHHHH
protein production: failed

MQGADADTVADALASDDALPGAGGFAGELDGTLVRDVLGRYPLFVERAVSDEARLDPGQWSHDPTALADPRSFPAGHIRNESGTQQRWSLPSLDPFGDRETAIETVGETVETSIDAVDTDSLAIAFSGGVDSALLAARLDAPLYVAGFPDSHDIEAARSAAELLGTEVRVVELTHDAIERAVPEIARATARTNAMDVQIALPLYLVAERVAGDGFDRLALGQGADELFGGYAKVAKAPEDPRVEADTVRGAQREVIASLPDQLERDVLALRAAGVEPVTPLLHDRVIGAALRLDGDLLVDGETRKVALRAAARESLPDEIADRDKKAAQYGSLAARELDRLARQAGYKRRMDDHVTQYVESLVE
protein production: failed

MEITKIRGTLPSITYWNSTTPIKYTYNGTTYTGYMGNYWSDYNGTDSDGDGIGDTSYTVPNDLGTDNHPLMQPFENYNLEHHHHHH
protein production: failed
